Values quoted from earlier work, collected in article PMC3179904.

Molecular target: CheA (Escherichia coli) (UniProt P07363)
Chain of UniProt P07363 (P07363 whole entry): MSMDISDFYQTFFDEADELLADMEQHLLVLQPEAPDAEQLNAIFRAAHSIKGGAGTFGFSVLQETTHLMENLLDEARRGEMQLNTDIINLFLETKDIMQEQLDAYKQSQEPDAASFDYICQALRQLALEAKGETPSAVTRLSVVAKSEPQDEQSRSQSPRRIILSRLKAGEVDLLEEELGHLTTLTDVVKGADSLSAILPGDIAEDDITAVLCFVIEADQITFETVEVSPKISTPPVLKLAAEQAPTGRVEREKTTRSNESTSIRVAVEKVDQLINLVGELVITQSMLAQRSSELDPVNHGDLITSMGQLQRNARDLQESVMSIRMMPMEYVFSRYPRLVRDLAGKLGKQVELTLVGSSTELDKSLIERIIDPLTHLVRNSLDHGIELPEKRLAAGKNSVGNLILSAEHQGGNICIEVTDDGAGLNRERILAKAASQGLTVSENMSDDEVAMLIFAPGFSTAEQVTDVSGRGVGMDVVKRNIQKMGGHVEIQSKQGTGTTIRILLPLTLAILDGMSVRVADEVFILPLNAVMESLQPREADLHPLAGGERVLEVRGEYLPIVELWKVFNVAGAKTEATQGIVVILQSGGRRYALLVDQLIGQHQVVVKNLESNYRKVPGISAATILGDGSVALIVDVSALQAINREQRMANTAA

Kd: 17 µM
Substance: CheW (from UniProt P0A964)
